The DeepSol protein solubility set

assay: soluble on expression in E. coli; label from the status in PepcDB or PDB records

| Sequence | soluble on expression in E. coli |
| --- | --- |
| GTLDTTWKEATLPQVKAMLEKDTGKVSGDTVTYSGKTVHVVAAAVLPGFPFPSFEVHDKKNPTLEIPAGATVDVTFINTNKGFGHSFDITKKGPPYAVMPVIDPIVAGTGFSPVPKDGKFGYTNFTWHPTAGTYYYVCQIPGHAATGQFGKIVVK | soluble |
| GVGRLDDLKRSPLFQNVPEDAMREALKVVTERNFQPDELVVEQDAEGEALHLVTTGVVRVSRVSLGGRERVLGDIYAPGVVGETAVLAHQERSASVRALTPVRTLMLHREHFELILRRHPRVLWNLAEMLARRVTFLNDELIAFGQNTEAALTHVFANLYRQRLAAGVPQPEVLPLGTQDIMARTSSSRETVSRVLKRLEAHNILEVSPRSVTLLDLAALEALSFEGAETD | soluble |
| GVSFFLVKEKMKGKNKLVPRLLGITKECVMRVDEKTKEVIQEWSLTNIKRWAASPKSFTLDFGDYQDGYYSVQTTEGEQIAQLIAGYIDIIL | soluble |
| GYDHKAIGITAKGAWEAVKRHFRESFNHDIQTTPFTCIGVGDMSGDVFGNGMLLSKQTKLIAAFDHRDIFIDPDPNIAESYTERMRLFQLPRSSWQDYDQTKLSKGGGIFSRTEKTITLSPEAAKAIGFAKQTGTPFEIISALLKAPVDLLWFGGIGTYIRATTETDAQVGDRANDALRITGEQVRAKVIGEGANLGVTQRGRIEYVLNGGRCNTDAIDNSAGVNCSDVEVNIKIVLASALRAKTLTRETRNELLKKMTPQVEQLVLRNNYLQTLALSLAESQSAADL | not soluble |
| GYMDLMPFINKAGCECLNESDEHGFDNCLRKDTTFLESDCDEQLLITVAFNQPVKLYSMKFQGPDNGQGPKYVKIFINLPRSMDFEEAERSEPTQALELTEDDIKEDGIVPLRYVKFQNVNSVTIFVQSNQGEEETTRISYFTFIGTPVQATNMNDFK | soluble |
| GYSNAGLVNNLAGKLIANYWLDKVYSKEEGYAHRNGDVHIHDLDCLTGYCAGWSLRSLLNEGFNGVRGRVESRAPKHLREALGQMANFLGILQSEWAGAQAFSSFDTYLAPYVFRDQLEFKEIKKAIKSFVYNLNVPARWGQSPFTNVTIDWTVPADLKDQIPTRNDRHLFEDIQEDALLVQEAQKRGASSLLSMTYKYFQAEMNLINRAFYEVMTEGDKTGQPFTFPIPTVNITEDFDWHGENTDLLFENTAKIGSSYFQNFIGSQYIRNEKGELVENPEAYKPNAVRSMCCRLQLDLRELLKRGGGLFGSAEMTGSIGVVTLNMARLGYRFRGDREGLMAELTKLMDLSKSTLEKKRQAVTELFHRGLYPYTKRYLPGFNNHFSTIGVNGINEMIRNFTNDQDNISSPSGMAFATEILEFMRERIRSYQEETGNLYNLEATPAEGTTYRFAKEDKKRYPQIIQAGMEENVYYTNSSQLPANFTDDPFEALTLQDELQCKYTGGTVLHLYMREKISSAEACRKLVKTVITSYKLPYITITPVFSVCPKHGYLRGEHEYCPLCDEEALLEIEQSQCC | not soluble |
| HEHNTIPKGASIEVKVQQLDPVNGNKDVGTVTITESNYGLVFTPDLQGLSEGLHGFHIHENPSCEPKEEEGELTAGLGAGGHWDPKGAKQHGYPWQDDAHLGDLPALTVLHDGTATNPVLAPRLKHLDDVRGHSIMIHTGGDNHSDHPAPLGGGGPRMACGVIK | soluble |
| HEIPYDNTSLPAVTFMQPSAKKNLLIFGGYDSNLEELILWFSPLRNNGYNLIIFDGPGQGNMLFKKEKSHFIMNFEKPVAAVLDYFSLDRVAALGLSWGGFFVMRAAAFEKRIEKIIALDIFYQGLDALTIAMNPVLAFIFKTLVNFKCKTWIDVLLTHAMTRDLDLNWKIKRGYQLTGTKTPYDLIQNIKKHNMKGLGPLINQEVLLLAGEKDQYVPVKRLGQIKKELSNAAEIKTHLFTQESGGEQHCQAGSNLALLAIKDFLK | not soluble |
| HENPEGIIRIYASTTPGEHILPSIIKEYKSSYKNVDFEITITDSERCFKALDEGLADIAAVGYLKNKNYEYTIIGKDRLVLIVPPNHPLAEKGTAKLEDILKEDYIDREEGSGTREAFIKALNDKGYSIMDLNVVMRLGSHSAVI | not soluble |
| HGPAEISDLDRQIEQLRRCELIKESEVKALCAKAREILVEESNVQRVDSPVTVCGDIHGQFYDLKELFRVGGDVPETNYLFMGDFVDRGFYSVETFLLLLALKVRYPDRITLIRGNHESRQITQVYGFYDECLRKYGSVTVWRYCTEIFDYLSLSAIIDGKIFCVHGGLSPSIQTLDQIRTIDRKQEVPHDGPMCDLLWSDPEDTTGWGVSPRGAGYLFGSDVVAQFNAANDIDMICRAHQLVMEGYKWHFNETVLTVWSAPNYCYRCGNVAAILELDEHLQKDFIIFEAAPQETVRASSPSPL | soluble |
| HHHHHHFADLVIQVIDELKQFGVSVKTYGAKGDGVTDDIRAFEKAIESGFPVYVPYGTFMVSRGIKLPSNTVLTGAGKRNAVIRFMDSVGRGESLMYNENVTTGNENIFLSSFTLDGNNKRLGQGISGIGGSRESNLSIRACHNVYIRDIEAVDCTLHGIDITCGGLDYPYLGDGTTAPNPSENIWIENCEATGFGDDGITTHHSQYINILNCYSHDPRLTANCNGFEIDDGSRHVVLSNNRSKGCYGGIEIKAHGDAPAAYNISINGHMSVEDVRSYNFRHIGHHAATAPQSVSAKNIVASNLVSIRPNNKRGFQDNATPRVLAVSAYYGVVINGLTGYTDDPNLLTETVVSVQFRARNCSLNGVVLTGFSNSENGIYVIGGSRGGDAVNISNVTLNNSGRYGVSIGSGIENVSITNISGIGDGINSPVALVSTINSNPEISGLSSIGYPTVARVAGTDYNDGLTLFNGAFRASTTSSGKIHSEGFIMGSTSGCEASVSKSGVLTSSSSKTSSERSLIAGSSTSEAKGTYNTILGSLGAVADEQFAALISASQSRASGNHNLILSSYGINTTGSYKVNGGFEKINWELDSLNGRIKARDTVTGGNTWSDFAEYFESLGGQVIETGYLVTLEKGKIRKAEKGEKIIGVISETAGFVLGESSFEWQGAVLKNEFGGIIYEEVTTEDGVKFKRPLPNPDFDPNKNYIPRSQRREWHVVGLLGQIAVRIDETVKQGHSIDAVGGVATDGDNFIVQEITTPYTKEKGYGVAIVLVK | soluble |
| HHHHHHMQHLVLIGFMGSGKSSLAQELGLALKLEVLDTDMIISERVGLSVREIFEELGEDNFRMFEKNLIDELKTLKTPHVISTGGGIVMHENLKGLGTTFYLKMDFETLIKRLNQKEREKRPLLNNLTQAKELFEKRQALYEKNASFIIDARGGLNNSLKQVLQFIA | soluble |
| HHHHHHTDPALRAAQQTPLYEQHTLCGARMVDFHGWMMPLHYGSQIDEHHAVRTDAGMFDVSHMTIVDLRGSRTREFLRYLLANDVAKLTKSGKALYSGMLNASGGVIDDLIVYYFTEDFFRLVVNSATREKDLSWITQHAEPFGIEITVRDDLSMIAVQGPNAQAKAATLFNDAQRQAVEGMKPFFGVQAGDLFIATTGYTGEAGYEIALPNEKAADFWRALVEAGVKPCGLGARDTLRLEAGMNLYGQEMDETISPLAANMGWTIAWEPADRDFIGREALEVQREHGTEKLVGLVMTEKGVLRNELPVRFTDAQGNQHEGIITSGTFSPTLGYSIALARVPEGIGETAIVQIRNREMPVKVTKPVFVRNGKAVAGLCGR | soluble |
| HKCDITLQEIIKDLNSLTEQKTLCTELTVTDIFAASKNTTEKETFCRAATVLRQFYSHHEKDTRCLGATAQQFHRHKQLIRDLKRLDRNLWGLAGLNSCPVKEANQSTLENFLERLKTIMREKYSKCSS | soluble |
| HKFIRTAIDMDKNRAFSSRLRQSIKDYFDMPWYLTFADAERLSDLRDEALVLRDDEVTGQVPMEVEYEEFQQVNDELSERIGDMLKAHKEQGTPIDLSVVLRDYLAQHPYTHHFDLARIIVDQAVRLGYSESDYQAIQPDWKAINEFGAKVQANVIDRY | soluble |
| HMSNFTGLKVLVMDENGVSRMVTKGLLVHLGCEVTTVSSNEECLRVVSHEHKVVFMDVCMPGVENYQIALRIHEKFTKQRHQRPLLVALSGNTDKSTKEKCMSFGLDGVLLKPVSLDNIRDVLSDLLEPRVLYEGM | soluble |
| HPKLVSSTPAEGSEGAAPAKIELHFSENLVTQFSGAKLVMTAMPGMEHSPMAVKAAVSGGGDPKTMVITPASPLTAGTYKVDWRAVSSDTFPITGSVTFKVK | soluble |
| HQWQADEEAVRSATCSFSVKYLGCVEVFESRGMQVCEEALKVLRQSRRRPVRGLLHVSGDGLRVVDDETKGLIVDQTIEKVSFCAPDRNHERGFSYICRDGTTRRWMCHGFLACKDSGERLSHAVGCAFAVCLER | soluble |
| HRWITRPKFTHFDLHTLNWDLCLTQANHKSNLALEMLKMLLDSLPETVEKIQTALGQNDQATMLSTIHKLHGASCYCGVPTTQRLCQEIESALKRQTPVEDLEPEILELLDELTKVESAVKQVLSQLSAEITDDQKNGLL | soluble |
| HYHGIAANPADIQHEFCTSAQSDLNETQWLLAAKSLGLKAKVVRQPIKRLAMATLPALVWCDDGNHFILAKTDGEGEHAQFLIQDLVTNKSAVLSFAEFSNRYSGKLILVASRASVLGSLAKFDFTWFIPAVIK | not soluble |
| IARVVVHPDYRADGLGILAVRTAVEWIEERRVPEMRMRKHLVETIAQMARFNPFFEKAGFYYLWDTASGKPVLYKPLSEEAE | not soluble |
| ICMNVENEVTHTQLQFNHTDKYCGNIKNLISCKLYQHALTLIDSFRHDKSI | not soluble |
| IGAVNYSIGANIATNKNKITNLGGSDNIIQTSSYIVKYILKKGESIGSFYGFKTDGLYTQADIDAGHYYTLSGVVPNAGDIKFVPQRDIEYKQEITDEDRTILGKDVPDFTYGVNLSLQYKGFEFSMFGQGISGTKVAFDVYGVHPFYHGQDSPRKYHLKRWTEENPNPHAAYPRIYSASSVHTTYNRNFSDYHLFDSDYFRFKTLSLGYTVPSATVKNWGLQSLKVYVTGENLFTVRADKKMEDFDPETAGGVIYTLGTKSVAFGVNISF | not soluble |
| IIGQVDEISTTDLIEEEENAVLITAEGYAKRMSLEEFRVQSRGGVGVIGASVSPGDEIAVFRICNSTDRLLIFTNTGRAFWINAYEIPKMDRTARGTTLKRLIRLENGEKVVSALGVKDF | soluble |
| IIYKETKPEEYNLRNPVVTQDYTVSMSGGNDRGTYYASLGYNDSPGAPITTEYTRYNFTFNGSYKIADWLKTTSNATFSRANYVWLNNDWGTEADYFGRVMSSPPTVRFEDEDGNSTLGPSPGDGNQTYVARSYDQDNERTKLTLMQSVEANLFKGLVLRASASWYYFHTVEENMRKDYETVPGQWDRTRSTSASYSRQFSQTYNAVLDYTTTFATSHNLNVMLGSEFYDQYNNGFSASGFGASTDDFKKLGLTDAGEGKRSIDSSHSRYRILSYFGRLNYDYEGKYLFSGVFRYDGYSSLLGKNRWGFFPGVSGGWVFTKEDFVKESLPFLYYGKLRASYGLNGNASGIGPYTLQGSYNSNKYHGNNGFLIGALPNPSLRWEKTASFDIGLNVGLLDGRLNLDIDYYNRLTSDKYADLTLPSTTGFSSIRNNNGKLRNRGIELQLSGKIMETRDFTWDASLNITYNKNKIIALPYNKEPRNRQEGQQVYTGRKIANPETGVFEDEKVWVGGFQEGMEYGVLVGYQAEGIYQSMDDIPGDLVVKSGNAQGKYQYGPDAWKRLSAAEQAKGVEIKPGDMKWKDVNGDGMIDQYDQVVIGNTTPRWFGGFNTTMSWKGLSLYARFDFALDYWVYDNQTPWLLGCMQGTYNTTKDVFNTWNESNPNAKYPRYVYGDQLGTANYNRTSTLFASKGNYLGVRELSLSYTLPQELSKKLYMQKLQFSITGQNLGYLTSARTVSPEISSGYPLPRTVILGVNVTF | not soluble |
